Positions count from the first letter of the chain named.
What was measured:
[1] = tested on: T1, BDD FVIII mutein S2206C
T1 sequence: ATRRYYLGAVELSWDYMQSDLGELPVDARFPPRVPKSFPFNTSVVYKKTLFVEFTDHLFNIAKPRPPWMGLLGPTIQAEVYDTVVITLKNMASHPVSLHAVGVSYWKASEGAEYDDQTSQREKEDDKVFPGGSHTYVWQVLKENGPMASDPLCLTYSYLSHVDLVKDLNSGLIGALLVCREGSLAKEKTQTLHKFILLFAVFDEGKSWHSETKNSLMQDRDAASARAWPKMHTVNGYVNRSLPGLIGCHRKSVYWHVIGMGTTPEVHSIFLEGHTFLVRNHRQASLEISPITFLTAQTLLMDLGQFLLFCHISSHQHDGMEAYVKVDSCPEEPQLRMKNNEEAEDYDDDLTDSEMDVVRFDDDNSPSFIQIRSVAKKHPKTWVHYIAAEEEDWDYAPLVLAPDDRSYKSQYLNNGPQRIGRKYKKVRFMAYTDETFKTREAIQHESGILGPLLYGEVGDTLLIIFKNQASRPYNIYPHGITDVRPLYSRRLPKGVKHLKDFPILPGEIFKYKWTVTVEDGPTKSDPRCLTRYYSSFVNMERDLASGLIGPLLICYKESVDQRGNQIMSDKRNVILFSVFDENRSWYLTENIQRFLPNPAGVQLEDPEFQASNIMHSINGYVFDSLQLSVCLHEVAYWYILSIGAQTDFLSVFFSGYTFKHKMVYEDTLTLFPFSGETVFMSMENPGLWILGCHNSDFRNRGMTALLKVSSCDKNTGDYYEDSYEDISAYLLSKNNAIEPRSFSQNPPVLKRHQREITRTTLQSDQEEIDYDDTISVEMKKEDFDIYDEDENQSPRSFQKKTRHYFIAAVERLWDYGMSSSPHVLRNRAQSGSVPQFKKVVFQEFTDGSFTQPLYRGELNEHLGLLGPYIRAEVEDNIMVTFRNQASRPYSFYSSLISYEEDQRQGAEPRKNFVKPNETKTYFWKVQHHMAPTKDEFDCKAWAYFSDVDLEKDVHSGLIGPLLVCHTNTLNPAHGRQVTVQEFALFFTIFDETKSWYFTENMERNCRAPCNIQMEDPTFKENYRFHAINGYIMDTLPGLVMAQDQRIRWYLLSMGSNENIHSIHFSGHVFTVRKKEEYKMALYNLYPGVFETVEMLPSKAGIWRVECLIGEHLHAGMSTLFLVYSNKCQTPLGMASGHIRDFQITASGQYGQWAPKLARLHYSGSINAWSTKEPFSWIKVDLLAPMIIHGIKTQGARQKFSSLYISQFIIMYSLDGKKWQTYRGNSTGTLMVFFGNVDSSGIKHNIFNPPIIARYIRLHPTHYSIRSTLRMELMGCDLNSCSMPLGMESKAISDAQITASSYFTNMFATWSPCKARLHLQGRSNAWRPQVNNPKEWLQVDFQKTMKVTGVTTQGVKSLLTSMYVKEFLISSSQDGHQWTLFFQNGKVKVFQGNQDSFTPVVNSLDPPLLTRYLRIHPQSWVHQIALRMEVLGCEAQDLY

[2] = tested on: T2, BDD FVIII mutein F2093C
T2 sequence: T1 sequence with F1199C, C1312S

thrombin (Haematologic Technologies, Essex Junction, Vt.)
thrombin cleavage, SDS-PAGE with silver staining [1]: Thrombin digestion of the muteins and control produced the expected cleavage fragments.
thrombin cleavage, SDS-PAGE with silver staining [2]: Thrombin digestion of the muteins and control produced the expected cleavage fragments.

Reference: US20150306234
